Results taken from article PMC4801485 (Biochemistry, 2015).

Assays:
Assay in all cases: NMR line shape analysis
[1] = target: cyclophilin domain of human Cyclophilin C (residues 25-212) (human, UniProt P45877 25-212)
[2] = target: cyclophilin domain of human Cyclophilin B (residues 39-216) (human, UniProt P23284 39-216)
human Cyclophilin A = human Cyclophilin A (human, UniProt P62937 1-165)
human Cyclophilin A, sequence (P62937 whole entry): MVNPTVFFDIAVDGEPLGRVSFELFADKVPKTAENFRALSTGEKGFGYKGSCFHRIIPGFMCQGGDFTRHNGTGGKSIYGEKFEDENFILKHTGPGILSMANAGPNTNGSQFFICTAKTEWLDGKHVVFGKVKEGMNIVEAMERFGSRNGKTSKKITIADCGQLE

cyclophilin domain of human Cyclophilin C (residues 25-212), sequence (P45877 25-212): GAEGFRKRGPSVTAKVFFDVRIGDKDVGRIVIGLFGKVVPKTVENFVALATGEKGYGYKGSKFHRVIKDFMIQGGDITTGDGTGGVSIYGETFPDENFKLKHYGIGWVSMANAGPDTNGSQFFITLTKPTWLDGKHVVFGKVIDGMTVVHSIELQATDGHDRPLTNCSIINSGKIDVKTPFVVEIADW
cyclophilin domain of human Cyclophilin B (residues 39-216), sequence (P23284 39-216): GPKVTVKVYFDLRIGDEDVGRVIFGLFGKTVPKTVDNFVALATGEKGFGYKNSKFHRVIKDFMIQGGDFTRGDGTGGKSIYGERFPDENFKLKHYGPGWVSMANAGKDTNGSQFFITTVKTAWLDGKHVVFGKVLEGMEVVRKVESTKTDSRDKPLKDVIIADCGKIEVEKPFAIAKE

B1: peptide substrate GSFGPDLRAGD (peptide)
peptide: GSFGPDLRAGD
koff of the cis isomer (kCD) [1]: 260 s⁻¹
koff of the trans isomer (kBA) [1]: 1620 s⁻¹
kon of the cis isomer (kDC) [1]: 7.9e+06 M⁻¹ s⁻¹
kon of the trans isomer (kAB) [1]: 4.2e+06 M⁻¹ s⁻¹
koff of the cis isomer (kCD) [2]: 200 s⁻¹
koff of the trans isomer (kBA) [2]: 960 s⁻¹
kon of the cis isomer (kDC) [2]: 4.9e+06 M⁻¹ s⁻¹
kon of the trans isomer (kAB) [2]: 2.1e+06 M⁻¹ s⁻¹
koff of the cis isomer (kCD) (human Cyclophilin A): 170 s⁻¹
koff of the trans isomer (kBA) (human Cyclophilin A): 550 s⁻¹
kon of the cis isomer (kDC) (human Cyclophilin A): 1e+07 M⁻¹ s⁻¹
kon of the trans isomer (kAB) (human Cyclophilin A): 3.2e+06 M⁻¹ s⁻¹
